Test results as given in the nanobody polyreactivity screen of Harvey et al. (2022).

Assay: yeast display, Sf9 membrane polyspecificity reagent, FACS + sequencing; frameworks hold sequencing errors
Procedure, shortened: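 Galactose induction of a Saccharomyces cerevisiae BJ5465 synthetic nanobody display library ran 36–48 hours. The cells were then stained for 1 hour at 4 °C with 10% biotinylated, detergent-solubilized Sf9 membrane reagent, pulled down on streptavidin microbeads and FACS-sorted into low and high (top ~1%) gates on expression and reagent-binding fluorescence. Labels for polyreactivity follow the gate of origin.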

Sequence | polyreactivity (PSR sort gate)
QVQLVESGGGLVQAGGSLRLSCAASGRIFGSYAMGWYRQAPGKERELVAAITTDDSTNYADSVKGRFTISRDNAKNTVYLQMNSLKPEDTAVYYCNAERWDELFDSWGQVTQVTVSS | low polyreactivity
QVQLVESGGGLVQAGGSLRLSCAASGRIFGFYAMGWYRQAPGKERELVARISSRGGSTYYADSVKGRFTISRDNAKNTVYLQMNSLKPEDTAVYYCAAYVWYHQYHYVPMDYWGQGTQVTVSS | high polyreactivity
QVQLVESGGGLVQAGGSLRLSCAASGSIFHTYAMGWYRKAPEKERELVAANTVSGGDTYYADSVKGRFTISRDNEKNTVYLQMNSLKAEDTAVYYCAVDTTTSYTVEYDYWGQGTQVTVSS | low polyreactivity
QVQLVESGGGLVQAGGSLRLSCSASGRTFSRYAMGWYSQAPGTERELVATISRRGGSTYYADSVKGRFTISRDNAKNTVYLQMNSLKPEDTAVYYCAARLYTQYYYWGQGTQVTVSS | high polyreactivity
QVQLVESGGGLVQAGGSLRLSCAASGSTFGSYAMGWYRQAPGKERELVAGISWSGGRTYYADSVKGRFTISRDNAKNTVYLQMNSLKPEDTAVYYCARDTGYYYARYNYWGQGTQVTVSS | low polyreactivity
QVQLVESGGGLVQAGGSLRLSCAASGITFYRYALGWYRQAPGKERELVAAISSSGGSTYYADSVKGRFTISRDNAKNTVYLQMNRLKPEDTAVYYCNAYYSVEYYYWGQGTQVTVSS | high polyreactivity
HVQLVDSGGGIVQAGGSLRLSCAASGSTFYGNAMGWYRQAPGKEMEFVAAISRGGGSTYYADSVKGRFTISRDNAKNTVYVQMNLLKTEDTADFYCAATRYLHPWYYQYYYCGQGTQVTVSS | low polyreactivity
QVQLVESGGGLVQAGGSLRLSCAASGFTFHRYAMGWYRQAPGKERELVARINWSGGGTYYADSVKGRFTISRDNAKNTVYLQMNSLKPEDTAVYYCNARGVFYVYKHDYWGQGTQVTVSS | high polyreactivity
QVQLVESGGGLVQAGGSLRLSCAASGRTFNINAMGWYRPAPGKERELVASISWGGGRTYSADSVKGRFTISRDNAKNTVYLQKNSLKPEDPAVYYCAADYAGNKGVPYYYKYNYWGQGTQVTVSS | high polyreactivity
QVQLVESGGGLVQAGGSLRLSCAASGLTFGRNAMGWYRQAPGKERELVAAISRSGGRTSYADSVKGRFTISRDYAKNTVYLQMNSLKPEDTSVYFCAALSDVYTHDYWGQGTQVTVSS | high polyreactivity
QVQLVESGGGLFQEGGSLRLSCAASGRTLRYYAMGWYRQAPGKVRELVAAISSGGTTNYADSVKGRFTISRDNAKNTVYFQMKSLKPEDTAVYYFAASYRRFRFSHYDYWGQVTQVTVSS | high polyreactivity
QVQLVESGGGLVQAGGTLRLSCAASGRIFFTNAMRRYRQASGKESELVAAISKSGARTYYADSVKGRFTISRDNAKNTVYLQMNSLKPEDTAVYYCAGDVSVAGYYYWGEGTQVTVSS | high polyreactivity
QDQLVESGGGLVQAGGSLRLSCAASGSTMRWYAMGWYRQAHGKERELVARISWTTGSTYYADSVKGRFTISRDNAKNTVYLQMNSLKPEDTAVYYCAVASGQSFYWGQGTQVTVSS | high polyreactivity
QVQLVESGGGLVQAGGSLRLSCAASGRTFNVYAMGWYRQAPGKETELVAVITNGGSTNYADSVKGRFTISRDNAKNTVYFQMNSLKPEDTAVYYCAAREDLYLYYNGQRVQYDYCGQGTQVTVSS | low polyreactivity
QVQLVESGGGLVQAGGSLRLSCAASGFTFYSNAMGWYRQAPGKERELVAAINWGGGSTYYADSVKGRFTISRDNAKNTVNLQMNSLKPEDTAVYYCAAEPIWEYWNGVSYAYDYWGQGTQVTVSS | low polyreactivity
QVQLVESGGGLVQAGGSLRLSCAASGSTFTTYAMGWYRQAPGKERELVAAISYGGGSTYYADSVKGRFTISRDNAKNTVYLQMNSLKPEDTAVYFCAAVAWASDGYDSWGQGTQVTVSS | low polyreactivity
QVQLVESGGGLVQAGGSLRLSCADSGSTFKGYTMGWYRQAPGKERELVAAIRSRSGNTYYADSVKGRFTISRDNAKNHVYLLMNSLKPEETAVYYCAAVQPYVDYDSWGQGTQVTVSS | high polyreactivity
QVQLVESGGGLVQAGGRLRLSCAASGLTFTYNAMGWYRQEPGKERELVAAITSGGNTNYADSVKGRFTISRDNAKNTVYLQMNSLKPEDTAVYYCATDRKNGISGRYGYWGQGTQVTVSS | low polyreactivity
QVQLVESGGGLVQAGGSLRLSCAASGRTFGPNAMGWYRQAPGKEMELVATITYIGGSTYYADSVKGRFTISRDNAKNTVYLQMNSLKPEDTAVYYCAKRGGSYKEGDSWGQGTQVTVSS | low polyreactivity
QVQRVESGGGLVQAGGSLRLSCAASGIIFDSYAMGWYRQAPGKERELVAAITSDSGRTYYADSVKGRFTISRDNAKNTVYLQMNSLKPEDTAVYYCAKGWDGTYDYWGQGTQVTVSS | low polyreactivity
QVQLVESGGGLVQAGGSLRLSSAASGSTFLVYSMGWSRQAPGKERELVAAIRGAGSTNYADSVKGRFTISRDNAKNTVYLQMIRLKPEDTAVYYCAAYLLYTPSMDYWGQGTQVTVSS | low polyreactivity

Sequence | polyreactivity (PSR sort gate)
QVQLVESGGGLVQAGRSLRLSCAASGSTFWFYAMGWYRQAPGKERELVASINSGGSTYYADSVKGRFTISRDNAKNTVYLQMNSLKPEDTAVFYCAADAYSWWGRWERYPYTTMYYWGQGTQVTVSS | low polyreactivity
QVQLVESGGGLVQAGGSLRLSCAASGGIIRTYARGWYRQAPGNETELVAAITTNAGSTYYADSVKGRFTISRDNAKNTVYLQMNSLKPEDTAVYYCAARWYYPYRTRYSASYGYWVQGTQVTVSS | high polyreactivity
QVQLVESGGGLVQAGGSLRLSCAASGSTFSWYAMGWYRQAPGKERELVAAITSGGSTQYADSVKGRFTISRDNAKNTVYLQMNSLKPEDTAVYYCATRRYKWGVRYDYWGQGTQVTVSS | high polyreactivity
QVQLVESGGGLVPARGSLRLSCAASGFTFYRYAMGCYRQAPGKERELVAAITSRSGITYYADSVKGRFTISRDNAKNTVYLQMNSLKPEDTAVYYCAAYVYRSTEFDYGYWGQGTQVTVSS | high polyreactivity
QVQLVESGGGLVQAGGSLRLSCAPSGRIFPRNAMGWYRQAPGKERELVAAITKSGGSTYYADSVKGRFTISRDNAKNTVYLQMNSLKPEDTAVYYCNAVQYRNYYWGQGTQVTVSS | high polyreactivity
QVQLVESGGGLVQAGGSLRLSCAASGNIFSFNDMGWYRQAPGKERELVAGITTSESTNYADSVKGRFTISRDNAKNTVYLQMNSLKPEDTAVYYCATEILTAARDTVVYQFYLGYYYWGQGTQVTVSS | low polyreactivity
QVQLVESGGGLVQAGGSLSLSCAASGRTFIFYAMGWYRQAPGKERELVAAISSSGSGTYYADSVKGRFTISRDNAKNTVYLQMNSLKPEDTAVYYCAADVVNSRRRPKYGYWGQGTQVTVSS | low polyreactivity
QVQLVESVGGLVQAGVSLRLSSPATGSTIYFYAMGWYRQEPGKERELVAAISGSGGRKYYADSVKGRFTISRDNAKNTVYLQMNSLKPEDTAVYYCAAEWFPYSEREFLYYYWGQGTQVTVSS | high polyreactivity
QVQLVESGGGLVQAGGSLRLTCAASGSTFVNYTMGWYRQAPGKERELVAAIRYRDGSTYYADSVKGRFTISRDNAKNTVYLQMNSLKPEDTAVYYCNTRITQVGDYIYDYWGQGTQVTVSS | low polyreactivity
QVQLVDSGGGLVQAGPSLRLSCAASGSTFYLYAMGWYRQAPGKERELVAAITFRGSRTYYADSVKGRFTISRDNAKNTVYFQMNSLKPEDTAVYYCAADSYIERAYGSLGVWRYDYWGQGTQVTVSS | low polyreactivity
QVQLVESGGGLDQAGGSLRLSCAASGSIFGNNAMGWYRQAPGKERELVASISSSSGSTNYADSVKGRFTISRDNAKNTVYVQMNSLKPEDTAVYYCAARWRYWSRKYDYWGQGTQVTVSS | high polyreactivity
QVQLVESGGGFVQAGGSLRLSCAASGRLFFIYAMGWYRQAPGKDRELVAAITGRGGRTYYADSVKGRFTISRDKPKNTVYLEMYSQKPEDTAVYYCAADSRDSYLFYYWGQGTQVTVST | high polyreactivity
QVQLVESGGGLVQAGGSLRLSCAASGYTFRVYTMGWYRQAPGKERELVAAISRRGSRTYYADSVKGRFTISRDNAKNSVYLQMNSLKPEDTAVYYCAAGIPYPDDYWGQGTQVTVSS | high polyreactivity
QVQLVESGGGLVQAGGSLRLSCAASGSTIGRYTMGWYRQAPGKERELVAAITGSGAGTYYADSVKGRFTISRDNAKNTVYLQMNRLKPEDTAVYYCNTVFRGGQFRYVRGVKYGYWGQGTQVTVSS | high polyreactivity
QVQLVESGGGLVHAGGPLRLSCAASGGIFFSYAMGWYRQAPGKERELVAAIRTNGGTTYYADSVKGRFTISRDNAKNTVYLHMNSLKPEETAVYDCAALPGGYYDRGEYDYWGQGTQVTVSS | low polyreactivity
QVQLVESAGGLVQAGGSLRLSCAASGRIFDRYTMGCYRQAPGKERELVAAITFGGGSTYYADSVKGRFTISRDNAKNTVYLQMNSLKPEDTAVYYCAKQRHGKLGHILGYNYWGQGTQVTVSS | low polyreactivity
QLQLEESGGGLVQAGGSLRLSSAASGSIFYPNVMGWYRQAPGKERELVAAISWGGTSTNYADSVKGRFTISRDNAKNTVYLQMNSLKPEDTAVYYCAARTYWYGYNYWGQGTQVTVSS | high polyreactivity
QVQLVESGGGLVQAGGSLRLSCAASGSTFSSNAMGWYRQAPGKERELVAAINRTGNTYYADSVKGRFTISRDNEKNTVYLQMNSLKPEDTAVYYCNTDLNLYRGGGYWGQGTQVTVSS | low polyreactivity
QVQLVESGGGLVQAGGSLRLSCAACGSIFPRNAMGWYIQAPGKDRALVASLNSGGSTNYADSVKGRFTISRDNAKYTVYLHMNSLKPEDSAGYYCAAVRPWWRNKPQWPRYDYWGQGTQVTVSS | low polyreactivity
QVQLVESGGGLVQAGGSLRLSCAASGNTFAENDMGWYRQAPGKERELVAAITYSGGDTYYADSVKGRFTISRDNAKNTVYLQMNSLKPEDTAVYYCAADNGSKEFDYWGQGTQVTVSS | low polyreactivity
